Results: patent US12303551B2, “Cellular immunotherapy compositions and uses thereof” (CERO THERPEUTICS HOLDINGS, INC., priority 2018, dated 2025)

B1: CER27: Chimeric engulfment receptor: Tim4 binding, Tim4 transmembrane, TLR2 signaling; SEQ ID NO: 98 (protein)
chain: MSKGLLLLWLVTELWWLYLTPAASEDTIIGFLGQPVTLPCHYLSWSQSRNSMCWGKGSCPNSKCNAELLRTDGTRIISRKSTKYTLLGKVQFGEVSLTISNTNRGDSGVYCCRIEVPGWFNDVKKNVRLELRRATTTKKPTTTTRPTTTPYVTTTTPELLPTTVMTTSVLPTTTPPQTLATTAFSTAVTTCPSTTPGSFSQETTKGSAFTTESETLPASNHSQRSMMTISTDIAVLRPTGSNPGILPSTSQLTTQKTTLTTSESLQKTTKSHQINSRQTILIIACCVGFVLMVLLFLAFLHRFHGLWYMKMMWAWLQAKRKPRKAPSRNICYDAFVSYSERDAYWVENLMVQELENFNPPFKLCLHKRDFIPGKWIIDNIIDSIEKSHKTVFVLSENFVKSEWCKYELDFSHFRLFDENNDAAILILLEPIEKKAIPQRFCKLRKIMNTKTYLEWPMDEAQREGFWVNLRAAIKS
modifications: CER27, amino acids 1-22 are signal peptide
B2: CER106: Chimeric engulfment receptor: Tim4 binding, Tim4 transmembrane, NFAM1 and TLR8 signaling; SEQ ID NO: 141 (protein)
chain: MSKGLLLLWLVTELWWLYLTPAASEDTIIGFLGQPVTLPCHYLSWSQSRNSMCWGKGSCPNSKCNAELLRTDGTRIISRKSTKYTLLGKVQFGEVSLTISNTNRGDSGVYCCRIEVPGWFNDVKKNVRLELRRATTTKKPTTTTRPTTTPYVTTTTPELLPTTVMTTSVLPTTTPPQTLATTAFSTAVTTCPSTTPGSFSQETTKGSAFTTESETLPASNHSQRSMMTISTDIAVLRPTGSNPGILPSTSQLTTQKTTLTTSESLQKTTKSHQINSRQTILIIACCVGFVLMVLLFLAFLLWNKKRMRGPGKDPTRKCPDPRSASSPKQHPSESVYTALQRRETEVYACIENEDGSSPTAKQSPLSQERPHRFEDDGELNLVYENLHHLFYWDVWFIYNVCLAKVKGYRSLSTSQTFYDAYISYDTKDASVTDWVINELRYHLEESRDKNVLLCLEERDWDPGLAIIDNLMQSINQSKKTVFVLTKKYAKSWNFKTAFYLALQRLMDENMDVIIFILLEPVLQHSQYLRLRQRICKSSILQWPDNPKAEGLFWQTLRNVVLTENDSRYNNMYVDSIKQY
modifications: CER106, amino acids 1-22 are signal peptide
B3: CER105: Chimeric engulfment receptor: Tim4 binding, Tim4 transmembrane, TLR8 and Baff-R signaling; SEQ ID NO: 140 (protein)
chain: MSKGLLLLWLVTELWWLYLTPAASEDTIIGFLGQPVTLPCHYLSWSQSRNSMCWGKGSCPNSKCNAELLRTDGTRIISRKSTKYTLLGKVQFGEVSLTISNTNRGDSGVYCCRIEVPGWFNDVKKNVRLELRRATTTKKPTTTTRPTTTPYVTTTTPELLPTTVMTTSVLPTTTPPQTLATTAFSTAVTTCPSTTPGSFSQETTKGSAFTTESETLPASNHSQRSMMTISTDIAVLRPTGSNPGILPSTSQLTTQKTTLTTSESLQKTTKSHQINSRQTILIIACCVGFVLMVLLFLAFLHHLFYWDVWFIYNVCLAKVKGYRSLSTSQTFYDAYISYDTKDASVTDWVINELRYHLEESRDKNVLLCLEERDWDPGLAIIDNLMQSINQSKKTVFVLTKKYAKSWNFKTAFYLALQRLMDENMDVIIFILLEPVLQHSQYLRLRQRICKSSILQWPDNPKAEGLFWQTLRNVVLTENDSRYNNMYVDSIKQYSWRRRQRRLRGASSAEAPDGDKDAPEPLDKVIILSPGISDATAPAWPPPGEDPGTTPPGHSVPVPATELGSTELVTTKTAGPEQQ
modifications: CER105, amino acids 1-22 are signal peptide
B4: CER103B: Chimeric engulfment receptor: Tim4 binding, Tim4 transmembrane, TLR8 and CD79b (185-213) signaling; SEQ ID NO: 138 (protein)
chain: MSKGLLLLWLVTELWWLYLTPAASEDTIIGFLGQPVTLPCHYLSWSQSRNSMCWGKGSCPNSKCNAELLRTDGTRIISRKSTKYTLLGKVQFGEVSLTISNTNRGDSGVYCCRIEVPGWFNDVKKNVRLELRRATTTKKPTTTTRPTTTPYVTTTTPELLPTTVMTTSVLPTTTPPQTLATTAFSTAVTTCPSTTPGSFSQETTKGSAFTTESETLPASNHSQRSMMTISTDIAVLRPTGSNPGILPSTSQLTTQKTTLTTSESLQKTTKSHQINSRQTILIIACCVGFVLMVLLFLAFLHHLFYWDVWFIYNVCLAKVKGYRSLSTSQTFYDAYISYDTKDASVTDWVINELRYHLEESRDKNVLLCLEERDWDPGLAIIDNLMQSINQSKKTVFVLTKKYAKSWNFKTAFYLALQRLMDENMDVIIFILLEPVLQHSQYLRLRQRICKSSILQWPDNPKAEGLFWQTLRNVVLTENDSRYNNMYVDSIKQYDSKAGMEEDHTYEGLDIDQTATYEDIVTL
modifications: CER103B, amino acids 1-22 are signal peptide

tested on: SCC152 cells; test: Elimination of GFP-expressing SCC152 target cells over time (quantification and time lapse imaging); assay type: cell-based; conditions: 96-well co-culture, CD8+/E7 TCR + CD4+/CER + SCC152 1:1:1, compared to control
Protocol: Target SCC152 cells were co-cultured with CD8+ T cells transduced with HPV E7 TCR+CD4+ T cells transduced with a selected CER, or controls (CD8+ T cell transduced with HPV E7 TCR+CD4+ transduced control) at a 1:1:1 ratio. The number of target cells were quantified using imaging software. 0 hours, 24 hours, and 48 hours are shown from left to right.
FIG. 21 is time lapse imaging from 96-well co-culture experiments comprising CD8+ T cells transduced with HPV16 E7 TCR+CD4+ T cells transduced with CER5, CER17 or CER19 incubated with SCC152 target cells at a 1:1:1 ratio. SCC152 HPV+ target cells were quantified using automated cell counting software.
FIG. 22 is time lapse imaging from 96-well co-culture experiments comprising CD8+ T cells transduced with HPV16 E7 TCR+CD4+ T cells transduced with CER21, CER23 or CER26 incubated with SCC152 target cells at a 1:1:1 ratio. SCC152 HPV+ target cells were quantified using automated cell counting software.
FIG. 23 is time lapse imaging from 96-well co-culture experiments comprising CD8+ T cells transduced with HPV16 E7 TCR+CD4+ T cells transduced with CER103b, CER104 or CER105 incubated with SCC152 target cells at a 1:1:1 ratio. SCC152 HPV+ target cells were quantified using automated cell counting software.
FIG. 24 is time lapse imaging from 96-well co-culture experiments comprising CD8+ T cells transduced with HPV16 E7 TCR+CD4+ T cells transduced with CER106, CER116 or CER27 incubated with SCC152 target cells at a 1:1:1 ratio. SCC152 HPV+ target cells were quantified using automated cell counting software.
FIG. 57 is a bar graph showing quantification of loss of SCC152 HPV16+ target cells over time during co-culture assays. SCC152 cells were transduced with green fluorescent protein (GFP) and co-cultured with CD8+ T cells transduced with HPV16 E7 TCR and CD4+ T cells transduced with a selected CER (CER29, CER30, CER110, CER112, CER113, CER114, CER116, or CER117) or a CD4+ T cell control at a 1:1:1 ratio (CD8:CD4:target cell). The number of target cells was quantified at various time points during co-culture (0 hrs, 12 hrs, 24 hrs, and 36 hrs) using fluorescence microscopy and imaging software.
FIG. 58 are fluorescence micrograph images of the co-culture assay described in FIG. 57, showing clearance of the SCC152 cells (pink) as co-culture with CD8+ T cells transduced with HPV16 E7 TCR and CD4+ T cells transduced with a selected CER (columns from left to right: control, CER29, CER30, CER110, or CER112) progresses (rows from top to bottom: 0 hrs, 12 hrs, 24 hrs, and 36 hrs).
FIG. 59 are fluorescence micrograph images of the co-culture assay described in FIG. 57, showing clearance of the SCC152 cells (pink) as co-culture with CD8+ T cells transduced with HPV16 E7 TCR and CD4+ T cells transduced with a selected CER (columns from left to right: control, CER113, CER114, CER116, or CER117) progresses (rows from top to bottom: 0 hrs, 12 hrs, 24 hrs, and 36 hrs).
Elimination of target SCC152 cells was also detected by quantifying green fluorescent protein expression by SCC152 cells over time (0 hr, 24 hr, 48 hr) during co-incubation with CD8+ T cells transduced with HPV16 E7 specific TCR+ CD4 T cells transduced with selected CER (see, FIG. 20).
Elimination of target SCC152 cells was also detected by quantifying green fluorescent protein expression by SCC152 cells over time (0 hr, 12 hr, 24 hr, 36 hr) during co-incubation with CD8+ T cells transduced with HPV16 E7 specific TCR+ CD4+ T cells transduced with selected CER (CER29, CER30, CER110, CER112, CER113, CER114, CER116, or CER117) (see, FIG. 57).

| Molecule | number of SCC152 cells in time lapse imaging |
| --- | --- |
| B1 | decreasing in numbers over time |
| B2 | decreasing in numbers over time |
| B3 | decreasing in numbers over time |
| B4 | decreasing in numbers over time |
